Reference: article doi:10.1101/2021.12.21.473721 (bioRxiv, 2021)

Target: the molecule itself
Assay: SEC

B1: bacteriophage MS2 coat protein, wildtype (MS2[WT]) (natural protein)
chain: ASNFTQFVLVDNGGTGDVTVAPSNFANGVAEWISSNSRSQAYKVTCSVRQSSAQNRKYTIKVEVPKVATQTVGGVELPVAAWRSYLNMELTIPIFATNSDCELIVKAMQGLLKDGNPIPSAIAANSGIY
**Q.** Does B1 bind?
**A.** Result: binds
